From patent US12076390 (Dana-Farber, dated 2024)

Molecular target: HA of A/Vietnam/1203/04 on pseudotyped virus (H5-VN04 pseudovirus) (influenza A virus A/Vietnam/1203/04 …)
Assay: cell-based or functional assay

B1: 3I14 VLD94N IgG1 (antibody, V domains shown)
VH: QVQLLESGGGVVQPGRSLRLSCAASGFTFSNYGMHWVRQAPGKGLEWVAIISFDGSKKYYANSVKGRSTISRDNSKNTLSLQMNSLGPEDTALYYCAKLPSPYYFDSRFVWVAASAFHFWGQGILVTVSS
VL: NFMLTQPPSASGTPGQRVTISCSGSSSNIGGNTVHWFQQLPGTAPKLLIYTNSLRPSGVPDRFSGSKSGTSASLAISGLQSEDEADYYCAAWDNSLNGQVFGGGTKLTVL
IC50, neutralization of H5-VN04 pseudovirus: 8.65 ng/mL
